One data set addresses bovine thrombin (bovine) (UniProt P00735). Nature of the data set: cell-based or functional assay.
Data set [1] deals with glucose oxidase. Nature of the data set: polyester discs with IgG polymer, not illuminated, washed; glucose oxidase at 0.1 mg/ml 1 h, washed; bound glucose oxidase read with glucose/HRP/TMB; n=5, SEM 0.021.
Data set [2] deals with glucose oxidase. The experiment in a line: glucose oxidase capture on discs with IgG polymer, illuminated against nonilluminated.
The target of data set [3] is glucose oxidase. The experiment in a line: polyester discs with IgG polymer, illuminated, washed; glucose oxidase at 0.1 mg/ml 1 h, washed; bound glucose oxidase read with glucose/HRP/TMB; n=5, SEM 0.059.
Data set [4] has as its target tritium labeled human thrombin (human) (UniProt P00734). Nature of the data set: 3H-thrombin at 2 µg/ml, 1 h, on SR coated with photoimmobilized hirudin polymer (5.0 µg/cm^2 added); scintillation counting.
Data set [5] shares this target. Nature of the data set: 3H-thrombin at 2 µg/ml, 1 h, on SR coated with photoimmobilized hirudin polymer (1.0 µg/cm^2 added); scintillation counting.
Data set [6] shares this target. The experiment in a line: 3H-thrombin at 2 µg/ml, 1 h, on PU coated with photoimmobilized hirudin polymer (5.0 µg/cm^2 added); scintillation counting.
Data set [7] shares this target. Nature of the data set: 3H-thrombin at 2 µg/ml, 1 h, on PE coated with photoimmobilized hirudin polymer (5.0 µg/cm^2 added); scintillation counting.
For data set [8] the target is unchanged. Nature of the data set: 3H-thrombin at 2 µg/ml, 1 h, on PE coated with photoimmobilized hirudin polymer (1.0 µg/cm^2 added); scintillation counting.
The target is the same in data set [9]. The experiment in a line: 3H-thrombin at 2 µg/ml, 1 h, on PE coated with photoimmobilized hirudin polymer (25 µg/cm^2 added); scintillation counting.
Data set [10] has the same target. The experiment in a line: 3H-thrombin binding, PU coated with 25 µg/cm^2 hirudin polymer against uncoated PU.
Data set [11] shares this target. Nature of the data set: 3H-thrombin at 2 µg/ml, 1 h, on PU coated with photoimmobilized hirudin polymer (25 µg/cm^2 added); scintillation counting.
Data set [12] shares this target. The experiment in a line: 3H-thrombin binding, PE coated with 25 µg/cm^2 hirudin polymer against uncoated PE.
The target is the same in data set [13]. The experiment in a line: 3H-thrombin at 2 µg/ml, 1 h, on PU coated with photoimmobilized hirudin polymer (1.0 µg/cm^2 added); scintillation counting.
Data set [14] deals with hirudin polymer (photoreactive polyacrylamide containing hirudin ligands).
The target in data set [15] is biotin derivatized horseradish peroxidase (horseradish) (UniProt P00433). Nature of the data set: biotin-HRP bound to glass rods, adsorbed against photoimmobilized streptavidin polymer.
biotin derivatized horseradish peroxidase (horseradish), sequence (P00433 31-338): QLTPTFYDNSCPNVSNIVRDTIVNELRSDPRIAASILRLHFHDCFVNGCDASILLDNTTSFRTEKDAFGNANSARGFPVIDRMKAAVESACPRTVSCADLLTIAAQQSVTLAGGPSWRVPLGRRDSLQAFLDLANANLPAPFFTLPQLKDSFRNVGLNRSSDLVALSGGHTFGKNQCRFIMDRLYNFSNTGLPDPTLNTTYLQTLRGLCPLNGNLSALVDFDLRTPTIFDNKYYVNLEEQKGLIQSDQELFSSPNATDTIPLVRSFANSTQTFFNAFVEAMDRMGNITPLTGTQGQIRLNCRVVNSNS
The target is the same in data set [16]. The experiment in a line: glass rods with adsorbed (nonilluminated) streptavidin polymer, biotin-HRP at 9 µg/ml 1 h, washed, TMB peroxidase substrate; average of 3.
For data set [17] the target is unchanged. Nature of the data set: glass rods with photoimmobilized streptavidin polymer, biotin-HRP at 9 µg/ml 1 h, washed, TMB peroxidase substrate; average of 3.

In turn, recombinant hirudin came in with a specific activity (antithrombin units per mg of hirudin); remaining thrombin activity on chromogenic substrate Chromozym TH with bovine thrombin (bovine) of 11700 ATU/mg.
With “IgG polymer (photoreactive polyacrylamide containing tritiated rabbit anti-glucose oxidase IgG ligands) (antibody)”, the figures for the IgG Activity (A655) in the data set with glucose oxidase [1] and with glucose oxidase [3] were 0.669 A655 and 1.08 A655, respectively. In the data set with glucose oxidase [2], the percent greater activity, illuminated against nonilluminated is 61%.
Turning to “hirudin polymer (photoreactive polyacrylamide containing hirudin ligands)”, the Bound thrombin came out at 0.047 µg/cm^2 in data set [4]; 0.004 µg/cm^2 in [5]; 0.137 µg/cm^2 in [6]; 0.014 µg/cm^2 in [7]; 0.02 µg/cm^2 in data set [8]; 0.2 µg/cm^2 in data set [9]. In addition, the values for the Bound thrombin in data set [11] and in data set [13] were 0.28 µg/cm^2 and 0.028 µg/cm^2, respectively. This substance registered a specific activity (antithrombin units per mg of hirudin); remaining thrombin activity on chromogenic substrate Chromozym TH with bovine thrombin (bovine) of 10200 ATU/mg. Also, the fold greater thrombin binding than uncoated biomaterial is 23 fold in [10] and 200 fold in data set [12].
Consider bovine thrombin, for which the “decrease in antithrombin activity after incorporation of hirudin into the polymer” value in [14] is “only a 13% decrease in its activity”.
As for “streptavidin polymer (photoreactive polyacrylamide containing streptavidin ligands) (from UniProt P22629 37-163)”, the fold less peroxidase activity than covalent streptavidin polymer in data set [15] worked out at 3.5 fold. The values for the Absorbance of Biotin-HRP in data set [16] and in data set [17] were 0.285 absorbance and 1 absorbance, respectively.

These data come from US6514734.
